Data from paper PMC3864903.

Experiments:
[1] = molecular target: rNav1.4 voltage-gated sodium channel α subunit (rat) (UniProt P15390)
[2] = molecular target: rNav1.4 voltage-gated sodium channel α subunit (rat) (UniProt P15390); remark: listed apart in the source
[3] = molecular target: rNav1.4 voltage-gated sodium channel α subunit (rat) (UniProt P15390); remark: listed apart in the source
[4] = molecular target: rNav1.4 voltage-gated sodium channel α subunit (rat) (UniProt P15390); remark: listed apart in the source

Substance | Use-dependent current decline on repetitive depolarisations at 1 Hz (10% after the second pulse, cumulative rundown 20%) [1] | Use-dependent current rundown on repetitive depolarisations at 5 Hz (data not shown) [1] | Slowing of the current recovery after 1 ms, against WT β1 [2] | Recovery from inactivation F (fast) [3] | Recovery from inactivation τ (fast) [3] | Recovery from inactivation τ (slow) [3] | Activation V1/2 of sodium currents, two electrode voltage clamp, co-expression in oocytes [4] | Inactivation V1/2 (steady-state inactivation) [4] | Inactivation rate τ (inac) of the peak current at −20 mV [3] | Current recovery from inactivation after a recovery interval of 1 ms [2]
rNavβ1 point mutant C43A (from UniProt Q00954 19-218) (natural protein) | 20% | 20% | 95% | 0.89 | 2.7 ms | 636 ms | -29 mV | -59.1 mV | – | –
rNavβ1 point mutant R89A (from UniProt Q00954 19-218) (natural protein) | – | – | 90% | 0.92 | 2.3 ms | 376 ms | -33 mV | -62.6 mV | 2.6 ms | –
rNavβ1 voltage-gated sodium channel accessory subunit, wild type (from UniProt Q00954 19-218) (natural protein) | – | – | – | 0.93 | 1.7 ms | 236 ms | -33.4 mV | -61.8 mV | 0.6 ms | 50%
rNavβ1 point mutant G33M (from UniProt Q00954 19-218) (natural protein) | – | – | – | – | – | 760 ms | -32.5 mV | -56 mV | 0.46 ms | –
rNavβ1 point mutant Y32A (from UniProt Q00954 19-218) (natural protein) | – | – | – | – | – | 743 ms | -34 mV | -56 mV | 0.48 ms | –
